# Source: the nanobody polyreactivity screen of Harvey et al. (2022)
# Assay: yeast display, Sf9 membrane polyspecificity reagent, FACS + sequencing; frameworks hold sequencing errors
# Procedure, shortened: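 A synthetic nanobody library was expressed on Saccharomyces cerevisiae BJ5465 by galactose induction for 36–48 hours. The library was stained for 1 hour at 4 °C with 10% biotinylated, detergent-solubilized Sf9 membrane reagent and enriched with streptavidin microbeads before FACS. Low and high (top ~1%) gates were set on anti-HA fluorescence for expression and streptavidin fluorescence for reagent binding, and each polyreactivity label reflects the gate of origin.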
row,Sequence,polyreactivity (PSR sort gate)
1,QVQLVESGGGLVQAGGSLRLSCAASGITFYRYAMGWYRPAPGKERELVAAISSRGGRTYYADSVKGRFTISRDNEKNTVYLQMNSLKPEDTGVYYCAKGGIVGSTLEYDYWGQGTQVTVSS,high polyreactivity
2,QVQLVESGGGLVQAGGSLRLSCAASGRIFAANVMGWYRQAPWKERELVAAISWNGGSTYYADSVKGRFTISRDNAKNTVYLQMNSLKPEDTAVYYCAVRGSYRGWYDYWGQGTQVTVSS,high polyreactivity
3,QVQLVESGGGLVQAGGSLRLSCASSGSTFYTNAMGWYRQAPGKERELVAGISSGGSTYYADSVKARFTISRDNAKNTVYLQINSLKPEDTAVYYCAAVERTRYWEFYYWGQGTQVIVSS,high polyreactivity
4,QVQLVESGGGLVQAGGSLRLSCAASGRIFTHNAMGGYRQAPGKERELVAAITIGGRTNYADSVKGRFTISRDNAKYTVYLQMNSLKPEDTAVYYCDRRYGTWNAYDYWGQGTLVTVSS,low polyreactivity
5,QVQLQESGRRPGAAGGSPRMSCAASGNIFCVAVMGRYRQAPGKERELVASIGFGCTTYYADSVKCRFTISRDNAKNTVYLQMFSLKPEDTAVYYCAAPHYDWGELDYWGQGTQVPVSS,low polyreactivity
6,QVQLVESGGGLVQAGGSLRLSCAASGRTFDFYAMGWYRQAPGKERELVASIDWDGGSTYYADSVKGRFTISRDNAKNTVYLQMNSLKPEDTAVYYCAKDGQKFTSSLYDYWGQGTQVTVSS,low polyreactivity
7,QVQLVESGGGLVQAGGSLRLICAASGSTSPYYTRGWYRQAPGKERELVASINESGGSTYYADSVKARFTISRDNAKNTVYLQMHTLKPEDTAGYNCNAEYTTPSYPVYSIDYYWFDYWGQGTQVTVSS,low polyreactivity
8,QVQLVESGGGLVQAGGSLRLSCAASGSTFSTNVMGWYRQAPGKERELVAAISTIGGSTYADSVKGRFTISRDNAKNTVYLQMNSLKPEDTAVYYCAAVFRVRRKTYGYWGQGTQVTVSS,high polyreactivity
9,QDQLVESGGGLVQAGGSLRLSCAASGSTFNNNALGWYRQAPGKERELVAAISYTGGSTYYADSVKGRFTISRDNAKNSVYLHMNSLKPEDTAVYYCARRQARKFYYWGQGTQVTVSS,high polyreactivity
10,QVQLVESGGGLVQAGGSLRLSCAASGLTFYLYAMGWYRPAPGKERELVAGISYRGASTYYADSVKGRFTISRDNAKNTVYLQMNSLKPEDTAVYYCAADDTTPNGVYWGQGTQVTVSS,low polyreactivity
11,QVQLVESGGGLVQAGGSLRLSCAASGSTFFQYAMGWYRQAPGKERELVAAITSGGSTNYADSVKGRFTISRDNAKNTVYLQMNSLKPEDTAVYYCAAESKSGAFDYWGQGTQVTVSS,low polyreactivity
12,QVQLVESGGGLVQAGGSLRLSCAASGSTFVTYGMGWYRQAPGKERELVAAITRDSSTNDADSVKGRFTISRDNAKNTVYLQLNSLKPEDTAVYYCATPRLPNFIGTEYDYWGQGTQVTVSS,low polyreactivity
13,QVQLVESGGGLVQAGGSLRLSCAASGYIYSVNAMGWYRQAPGKERELVAAIRGSGGSTFYADSVKGRFTISRDNAKNTVYLQMNSLKPEDTAVSYCAASFLGSFTDWVYSVYEYGSWGQGTQVTVSS,low polyreactivity
14,QVQLVESGGGLVQAGGSLRLSCAASGSTLYRYAMGWYRQAAGKERELVATITRSGGSTYYADSVKGRFTISRDNAKNTVYLQMNSLKPEDTAVYSCAAYRKVGGFSRGDYWGQGTQVTVSS,high polyreactivity
15,QVHLVESVGGLVQAGGSLRLSCAASGYIFGGYAMAWYRQAPGKERELVAAISRSGGSTYYADSVKGRFTISRDNAKNTVYLQINSLKPVDTAVYYCAVRGYTLPYGYWGQGTQVTVSS,high polyreactivity
16,QVQLVESGGGLVQAGGSLRLSCAASGGTFAGYAMGWYRQAPGKERELVAAITYRSSTTYYADSVKGRFTISRDNANNTVYLQMNSLKPEDTAVYYCAARTRGTGRNRDYWGQGTQVTVSS,high polyreactivity
17,QVQLVESGGGLVQAGGSLRLSCAASGFTFVSYAMGWYRQAPGKERELVAAISRSGGTTYYADSVKGRFTISRDNAKNTGYFQMNSLKPEDTAVYYCAADFYVFYTRYYYWGQGTQVTVSS,low polyreactivity
